Results from paper PMC2680606 (Biochemistry, 2009).

Target: Myc-UbcM2-His6 (mouse, UniProt P52483 1-207)
Test: pull-down

Myc-UbcM2-His6, sequence (P52483 whole entry): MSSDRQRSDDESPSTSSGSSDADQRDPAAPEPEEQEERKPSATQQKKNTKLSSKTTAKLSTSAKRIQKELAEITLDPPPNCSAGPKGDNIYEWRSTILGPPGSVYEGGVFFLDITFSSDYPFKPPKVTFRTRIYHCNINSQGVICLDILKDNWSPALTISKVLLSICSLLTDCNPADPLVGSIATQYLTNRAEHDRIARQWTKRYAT

B1: ^35S-RCBTB1 fragment: BTB domain and C-terminal 87 residues (domain or fragment, human, UniProt Q8NDN9 360-531, looked up)
chain: LKKEFDSPETADLKFRIDGKYIHVHKAVLKIRCEHFRSMFQSYWNEDMKEVIEIDQFSYPVYRAFLQYLYTDTVDLPPEDAIGLLDLATSYCENRLKKLCQHIIKRGITVENAFSLFSAAVRYDAEDLEEFCFKFCINHLTEVTQTAAFWQMDGPLLKEFIAKASKCGAFKN
modifications: 35S-labelled methionine and cysteine
B1 was tested, and the “fold binding against full-length RCBTB1” value was 2 fold.
